Experimental data reported in PMC7229837, “Molecular architecture of the DNA-binding sites of the P-loop ATPases MipZ and ParA from Caulobacter crescentus”.
Numbering of substitutions follows the chain as printed.

Legend:
Settings in all cases: protein: recombinant; tags: C-terminal His6 (pET21a); chain copies: 2; label: Cy3 (5') on strand 1; blunt
MipZ WT = target: T1, MipZ WT (Caulobacter crescentus, UniProt Q9A6C9 1-278); assay: MST; EMSA: 10 mM HEPES/NaOH pH 7.2, 150 mM NaCl, 10 mM MgCl2, 0.05% Tween 20, 0.46 mM ATPgS, room temp; BLI: 50 mM HEPES/NaOH pH 7.2, 50 mM NaCl, 5 mM MgCl2, 0.1 mM
T1 sequence: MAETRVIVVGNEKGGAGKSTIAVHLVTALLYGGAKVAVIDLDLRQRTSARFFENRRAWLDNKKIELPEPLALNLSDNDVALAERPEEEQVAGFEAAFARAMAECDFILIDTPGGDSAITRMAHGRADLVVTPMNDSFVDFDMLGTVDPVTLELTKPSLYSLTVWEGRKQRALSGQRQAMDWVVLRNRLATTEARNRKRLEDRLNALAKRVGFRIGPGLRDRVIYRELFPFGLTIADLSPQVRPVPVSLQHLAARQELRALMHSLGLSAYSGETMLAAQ

MipZ L248A = target: T2, MipZ L248A (Caulobacter crescentus, UniProt Q9A6C9 1-278, L248A); assay: as above
T2 sequence: T1 sequence with L248A

MipZ D42A = target: T3, MipZ D42A (Caulobacter crescentus, UniProt Q9A6C9 1-278, D42A); assay: as above
T3 sequence: T1 sequence with D42A

MipZ L237A = target: T4, MipZ L237A (Caulobacter crescentus, UniProt Q9A6C9 1-278, L237A); assay: MST; low-affinity group, KD >> 10 uM; EMSA: 10 mM HEPES/NaOH pH 7.2, 150 mM NaCl, 10 mM MgCl2, 0.05% Tween 20, 0.46 mM ATPgS, room temp; BLI: 50 mM HEPES/NaOH pH 7.2, 50 mM NaCl, 5 mM MgCl2, 0.1 mM
T4 sequence: T1 sequence with L237A

MipZ R242A = target: T5, MipZ R242A (Caulobacter crescentus, UniProt Q9A6C9 1-278, R242A); assay: as above
T5 sequence: T1 sequence with R242A

MipZ R196A = target: T6, MipZ R196A (Caulobacter crescentus, UniProt Q9A6C9 1-278, R196A); assay: as above
T6 sequence: T1 sequence with R196A

B1: rand-Cy3/rand-rev 26 bp (dsDNA)
DNA 1: GAGGCAGACTAGATCTTCTAGTTCGG
DNA 2: CCGAACTAGAAGATCTAGTCTGCCTC
Kd (MipZ WT): < 10 µM
Kd (MipZ L248A): < 10 µM
Kd (MipZ D42A): < 10 µM
Kd (MipZ L237A): > 10 µM
Kd (MipZ R242A): > 10 µM
Kd (MipZ R196A): > 10 µM
